Results from PMC8156467, “Disruption of YY1-EZH2 Interaction Using Synthetic Peptides Inhibits Breast Cancer Development” (Cancers, 2021).

Test system: HA-YY1
Assay: Co-IP of Flag-EZH2 wt/mutants with HA-YY1
Assay type: binding
Settings: OPB domain of YY1 deleted
Excerpt: HA-tagged expression vectors of wild-type (wt) and mutant YY1 were constructed by amplifying and subcloning the corresponding fragments of the YY1 coding region into the pcDNA3 vector. To generate EZH2 mutants, different regions of its coding sequence (1–251, 252–384, 385–618, 619–751, 385–465, 465–545, 545–618, 465–492, and 465–519) were amplified and subcloned into pGEX-4T-1 and pSL4-3×Flag plasmids to construct vectors expressing recombinant GST-EZH2 and 3×Flag-EZH2 mutants, respectively. To generate vectors expressing 3×Flag-YPB, -OPB, and -Cont (with a scrambled sequence of […]) peptides, their coding sequences were individually subcloned into a lentiviral vector pSL4 using the CMV promoter to drive the expression of 3×Flag-YPB-2A1-EGFP, 3×Flag-OPB-2A1-EGFP, and 3×Flag-Cont-2A1-EGFP. […]
Immunoprecipitations were performed as described previously. […] In Western blot studies, protein concentrations of samples were determined using the Bradford protein method, and 20 μg of proteins for each sample were separated by SDS-PAGE followed by transfer to polyvinylidene difluoride (PVDF) membranes. […]
Figure 1 Identification of YY1 binding site on EZH2 protein. […] The samples were analyzed by Western blot using EZH2 and YY1 antibodies as indicated. […]

B1: HA-YY1 (ΔOPB): YY1 mutant with the OPB domain deleted (protein)
chain: MASGDTLYIATDGSEMPAEIVELHEIEVETIPVETIETTVVGEEEEEDDDDEDGGGGDHGGGGGHGHAGHHHHHHHHHHHPPMIALQPLVTDDPTQVHHHQEVILVQTREEVVGGDDSDGLRAEDGFEDQILIPVPAPAGGDDDYIEQTLVTVAAAGKSGGGGSSSSGGGRVKKGGGKKSGKKSYLSGGAGAAGGGGADPDEKKDIDHETVVEEQIIGENSPPDYSEYMTGKKLPPGGIPGIDLSDPKQLAEFARMKPRKIKEDDAPRTIACPHKGCTKMFRDNSAMRKHLHTHGPRVHVCAECGKAFVESSKLKRHQLVHTGEKPFQCTFEGCGKRFSLDFNLRTHVRIHTGDRPYVCPFDGCNKKFAQSTNLKSHILTHAKAKNNQ
modifications: left off: HA, end not stated, kept
  binding of HA-YY1 (ΔOPB) to wt EZH2 in co-IP: did not show detectable binding affinity
